Experimental findings from paper PMC9596371 (Nature Chemical Biology, 2022) are described below.

To fix the notation:
B1: CV27 IgG (antibody, V domains shown)
VH: QVQLVESGGGVVQPGRSLRLSCAASGFTFSSYAMHWVRQAPGKGLEWVALISYDGSNKYYADSVKGRFTISRDNSKNTLYLQMNSLRAEDTAVYYCARSFGGSYYYGMDVWGQGTTVTVSS
VL: QSALTQPASVSGSPGQSITISCTGTSSDVGGYNYVSWYQQHPGKAPKLMIYDVSNRPSGVSNRFSGSKSGNTASLTISGLQAEDEADYYCSSYTSSSTPYVFGTGTKVTVL
B2: COV2-2449 IgG (antibody, V domains shown)
VH: QVQLVESGGGVVQPGRSLRLSCATSGFTFSSFALHWVRQAPGKGLEWVTVISDDGNNKYYVDSVKGRFTISRDNSKNTLFLQMNSLRVEDTAIYYCARASYNSNWSIGEYFRDWGQGTLVTVSS
VL: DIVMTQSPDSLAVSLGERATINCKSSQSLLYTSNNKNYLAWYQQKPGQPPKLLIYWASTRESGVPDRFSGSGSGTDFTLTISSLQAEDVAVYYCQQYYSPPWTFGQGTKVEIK
B3: COV2-2143 IgG (antibody, V domains shown)
VH: EVQLVESGGGLVQPGGSLRLSCAASGFTVSSNYMSWVRQAPGKGLEWVSVIYSAGSTYYADSVKGRFSISRDKSKNTLYLQMNSLRAEDTAVYYCAKEGGSGSLRYYYYGMDVWGQGTTVTVSS
VL: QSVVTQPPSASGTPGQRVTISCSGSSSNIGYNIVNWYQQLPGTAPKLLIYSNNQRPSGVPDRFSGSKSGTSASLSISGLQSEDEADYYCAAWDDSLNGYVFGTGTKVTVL
B4: COV2-2147 IgG (antibody, V domains shown)
VH: QVQLAESGGGVVQPGRSLRLSCAASGFTFSSYAMHWVRQAPGKGLEWVAVISYDGSNKYYADSVKGRFTISRDNSKNTLYLQMNSLRAEDTAVYYCARSTSGSYYYGMDVWGQGTTVTVSS
VL: QSALTQPASVSGSPGQSITISCTGTSSDVGDYNYVSWYQQHPGKAPKLMIYDVSNRPSGVSNRFSGSKSGNTASLTISGLQAEDEAEYYCSSYTSSSTLLYVFGTGTKVTVL
B5: CV27 Fab (Fab, V domains shown)
VH: QVQLVESGGGVVQPGRSLRLSCAASGFTFSSYAMHWVRQAPGKGLEWVALISYDGSNKYYADSVKGRFTISRDNSKNTLYLQMNSLRAEDTAVYYCARSFGGSYYYGMDVWGQGTTVTVSS
VL: QSALTQPASVSGSPGQSITISCTGTSSDVGGYNYVSWYQQHPGKAPKLMIYDVSNRPSGVSNRFSGSKSGNTASLTISGLQAEDEADYYCSSYTSSSTPYVFGTGTKVTVL
B6: COVA2-14 IgG (antibody, V domains shown)
VH: QVQLVQSGAEVKKPGSSVKVSCKASGGTFSSYAIIWVRQAPGQGLEWMGGIIPIFGTANYAQKFQGRVTITTDESTSTAYMELSSLRSEDTAVYYCARVRYYDSSGYYEDYWGQGTLVTVSS
VL: EIVLTQSPATLSLSPGERATLSCRASQSVSSYLAWYQQEPGQAPRLLIYDASNRATGIPARFSGSGSGTDFTLTISSLEPEDFAVYYCQQRSNWPPMYTFGQGTKVEIK
B7: COVA2-18 IgG (antibody, V domains shown)
VH: EVQLVQSGAEVKKPGSSVKVSCKASGGTFSSYAISWVRQAPGQGLEWMGGIIPIFGTTNYAQKFQGRVTITTDESTSTAYMELSSLRSEDTAVYYCARVYSYDSSGYYLEYWGQGTRVTVSS
VL: EIVLTQSPATLSLSPGERATLSCRASQSVSSYLAWYQQKPGQAPRLLIYDASNRATGIPARFSGSGSGTDFTLTISSLEPEDFAVYYCQQRSNWPPSITFGQGTRLEIK
B8: COVA2-14 Fab (Fab, V domains shown)
VH: QVQLVQSGAEVKKPGSSVKVSCKASGGTFSSYAIIWVRQAPGQGLEWMGGIIPIFGTANYAQKFQGRVTITTDESTSTAYMELSSLRSEDTAVYYCARVRYYDSSGYYEDYWGQGTLVTVSS
VL: EIVLTQSPATLSLSPGERATLSCRASQSVSSYLAWYQQEPGQAPRLLIYDASNRATGIPARFSGSGSGTDFTLTISSLEPEDFAVYYCQQRSNWPPMYTFGQGTKVEIK
B9: COV2-2449 Fab (Fab, V domains shown)
VH: QVQLVESGGGVVQPGRSLRLSCATSGFTFSSFALHWVRQAPGKGLEWVTVISDDGNNKYYVDSVKGRFTISRDNSKNTLFLQMNSLRVEDTAIYYCARASYNSNWSIGEYFRDWGQGTLVTVSS
VL: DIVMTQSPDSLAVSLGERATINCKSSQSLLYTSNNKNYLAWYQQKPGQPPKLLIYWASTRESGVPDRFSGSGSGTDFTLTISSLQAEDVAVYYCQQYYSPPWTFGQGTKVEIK
B10: COV2-2143 Fab (Fab, V domains shown)
VH: EVQLVESGGGLVQPGGSLRLSCAASGFTVSSNYMSWVRQAPGKGLEWVSVIYSAGSTYYADSVKGRFSISRDKSKNTLYLQMNSLRAEDTAVYYCAKEGGSGSLRYYYYGMDVWGQGTTVTVSS
VL: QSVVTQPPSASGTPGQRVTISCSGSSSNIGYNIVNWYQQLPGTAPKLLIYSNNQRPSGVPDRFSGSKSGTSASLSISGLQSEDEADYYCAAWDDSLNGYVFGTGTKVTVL

The target in one test is T1, SARS-CoV-2 spike protein (FL-GCN4-Avi-His, 2P, biotinylated trimer) (SARS-CoV-2, Wuhan-Hu-1 (strain named …, UniProt P0DTC2, stabilised, biotin on the Avi tag)). Description: ELISA. The settings on record: both partners purified. Background: In an ELISA, binding on a coated surface is turned into a signal by an enzyme label.
Regarding B1, the binding result was “binds”.

In the case of B2, the binding result is “binds”.

As for B3, the binding result was “binds”.

A further test deals with T1, SARS-CoV-2 spike protein …. Description: BLI. Particulars: both partners purified.
In the case of B4, the binding result is recorded as “binds”.

On to B5, for which the binding result was “binds”.

Turning to B6, the binding result is reported as “binds”.

As to B7, the binding result is reported as “binds”.

Regarding B8, the binding result is “binds”.

As for B9, the binding result is “binds”.

On to B10, for which the binding result is given as “binds”.
